Paper PMC8318587, “Structure-guided microbial targeting of antistaphylococcal prodrugs” (eLife, 2021)
Entries after “also recorded” stand apart in the source; their conditions may differ.

How the values were obtained:
mouse sera = assay: Esterase substrate specificity, fluorogenic SAR library kinetics in serum; format: in vitro ADME
Experimental: (§1) Kinetic measurements were performed according to [White et al., 2018] with minor variation. Lyophilized human and mouse sera were resuspended according to manufacturer instructions in highly pure, filtered water at protein concentrations of 85 mg/mL and 70 mg/mL, respectively. One milliliter of resuspended serum was added to a 24 mL mastermix for a final concentration of 31.25 mM Tris pH 7.5, 312.5 mM NaCl, 1.25 mM MgCl2, 12.5% glycerol, and 3.4 mg/mL or 2.8 mg/mL protein for human and mouse serum, respectively. For purified proteins, 5 mL of a 75 µg/mL stock was added to yield a 20 mL mastermix containing 31.25 mM Tris pH 7.5, 312.5 mM NaCl, 1.25 mM MgCl2, 12.5% glycerol, and 18.75 µg/mL protein. Mastermix was stored on ice when not in use. Twenty microliters of mastermix was transferred to a black, 96-well half area microplate (Corning, CLS3993) and prewarmed at 37°C. Fluorogenic substrates were prepared as 10 mM stock solutions in 100% DMSO and were diluted in water to a starting concentration of 500 µM. Enzyme catalyzed substrate hydrolysis was initiated by addition of 5 µL substrate dilution in technical duplicate to the prewarmed serum or protein solution. Final assay concentrations were as follows: 25 mM Tris pH 7.5, 250 mM NaCl, 1 mM MgCl2, 10% glycerol, and protein at a concentration of 2.72 mg/mL (human serum), 2.24 mg/mL (mouse serum), or 15 µg/mL (FrmB, GloB). The resulting change in fluorescence (λex = 485 nm, λem = 520 nm) was followed for 15 min at 37°C, collecting data every 30 s on a FLUOstar Omega microplate reader (BMG Labtech). Fluorescence measurements were converted to molar concentrations using a fluorescein standard curve (2.5 nmol–0.6 pmol). The initial rates of reaction were measured three independent times with two technical replicates per measurement and fit to a line using GraphPad Prism (GraphPad Software, La Jolla, CA). Initial rates of reaction were plotted versus the concentration of substrate and fit to a standard Michaelis–Menten equation (v = Vmax[S]/(Km + [S])), yielding estimates of Vmax and Km. Values for kcat and kcat/Km were calculated based on amount of enzyme added when purified enzymes were used.

human sera = assay: as above; format: in vitro ADME
Experimental: as §1

SaGloB = molecular target: T1, SaGloB (Staphylococcus aureus, UniProt P0DY75); assay: Esterase substrate specificity, fluorogenic SAR library kinetics; format: biochemical
T1 sequence (P0DY75 1-207): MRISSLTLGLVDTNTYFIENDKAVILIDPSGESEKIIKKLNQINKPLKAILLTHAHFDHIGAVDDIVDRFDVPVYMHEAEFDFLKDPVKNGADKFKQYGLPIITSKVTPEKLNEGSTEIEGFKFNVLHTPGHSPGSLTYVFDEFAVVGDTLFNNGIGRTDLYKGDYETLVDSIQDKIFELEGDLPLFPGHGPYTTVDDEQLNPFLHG
Experimental: as §1

SaFrmB = molecular target: T2, SaFrmB (Staphylococcus aureus, UniProt A0A0H3KFB7); assay: as above; format: biochemical; details: for In vitro activity (catalytic efficiency) for FrmB, in words: fluorogenic ester substrate
T2 construct: made in house; host or cells: E. coli BL21 (DE3)
T2 sequence (A0A0H3KFB7 1-253): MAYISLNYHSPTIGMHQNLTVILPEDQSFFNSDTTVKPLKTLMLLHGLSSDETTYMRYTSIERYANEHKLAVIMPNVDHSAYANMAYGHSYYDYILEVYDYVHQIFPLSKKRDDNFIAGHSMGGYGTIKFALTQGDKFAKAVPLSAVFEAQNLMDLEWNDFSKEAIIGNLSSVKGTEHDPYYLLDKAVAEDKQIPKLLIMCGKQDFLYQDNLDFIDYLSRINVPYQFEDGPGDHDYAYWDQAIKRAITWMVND
Experimental: as §1

S. aureus = assay: Microfluidics live cell imaging of pro-fluorescent substrate activation; format: cell-based, Staphylococcus aureus; details: 10 µM pro-fluorescent substrate, 37°C
Experimental: Overnight cultures of S. aureus were grown in LB media, back diluted 1:500, and grown to early exponential phase (OD600 0.1–0.15), then washed in 1× PBS, and loaded on a bacterial CellASIC ONIX2 microfluidic plate. Prior to cell loading, the microfluidics plate lines were flushed with 1× PBS + 1% DMSO or 10 µM fluorescent pro-substrate in 1× PBS + 1% DMSO, and the plate was preincubated at 37°C. The microfluidics plate was loaded onto a Nikon Ti-E inverted microscope (Nikon Instruments, Inc) equipped with a 100× Plan N (N.A. = 1.45) Ph3 objective, SOLA SE Light Engine (Lumencor), heated control chamber (OKO Labs), and an ORCA-Flash4.0 sCMOS camera (Hammamatsu Photonics). The GFP filter set was purchased from Chroma Technology Corporation. Cells were loaded into the chamber until a single field of view contained 50–150 cells or cell clusters. […] Images were acquired every two min for a total of 44 min, and all experiments were undertaken at 37°C. The phase-contrast exposure time was kept constant at 200 ms, and the fluorescent channel exposure time was kept constant at 500 ms. For fluorescent images, the gain remained constant across all experiments. Image capture and analysis was performed using Nikon Elements Advanced Research software. Individual cells or clusters of cells were auto detected in the fluorescent channel using the intrinsic background fluorescence of each cell. […] Fluorescent intensity for each individual cell or cluster of cells was measured through the duration of the experiment and normalized to the area of the identified cell to yield the mean fluorescent intensity. Background cell autofluorescence was corrected by subtracting the average fluorescence across all identified objects from t = 0 through t = 10. Each experiment was performed in duplicate, with >50 individual cells or clusters analyzed in each experiment.

[1] = substrate: CCCCC(=O)OCOc1ccc2c(c1)Oc1cc(OCOC(=O)CCCC)ccc1C21OC(=O)c2ccccc21; assay: Esterase substrate specificity, fluorogenic SAR library kinetics; format: biochemical, Staphylococcus aureus; details: other: SaFrmB 15 µg/mL, pH 7.5, 37°C
Experimental: as §1

[2] = substrate: CC(C)SCC(=O)OCOc1ccc2c(c1)Oc1cc(OCOC(=O)CSC(C)C)ccc1C21OC(=O)c2ccccc21; assay: as above; format: biochemical, Staphylococcus aureus; details: other: SaFrmB 15 µg/mL, pH 7.5, 37°C
Experimental: as §1

[3] = substrate: CCOC(C)C(=O)OCOc1ccc2c(c1)Oc1cc(OCOC(=O)C(C)OCC)ccc1C21OC(=O)c2ccccc21; assay: as above; format: biochemical, Staphylococcus aureus; details: other: SaFrmB 15 µg/mL, pH 7.5, 37°C
Experimental: as §1

[4] = substrate: COCC(=O)OCOc1ccc2c(c1)Oc1cc(OCOC(=O)COC)ccc1C21OC(=O)c2ccccc21; assay: as above; format: biochemical, Staphylococcus aureus; details: other: SaFrmB 15 µg/mL, pH 7.5, 37°C
Experimental: as §1

[5] = substrate: COCCC(=O)OCOc1ccc2c(c1)Oc1cc(OCOC(=O)CCOC)ccc1C21OC(=O)c2ccccc21; assay: as above; format: biochemical, Staphylococcus aureus; details: other: SaFrmB 15 µg/mL, pH 7.5, 37°C
Experimental: as §1

[6] = substrate: CCCC(=O)OCOc1ccc2c(c1)Oc1cc(OCOC(=O)CCC)ccc1C21OC(=O)c2ccccc21; assay: as above; format: biochemical, Staphylococcus aureus; details: other: SaFrmB 15 µg/mL, pH 7.5, 37°C
Experimental: as §1

[7] = substrate: COC(C)C(=O)OCOc1ccc2c(c1)Oc1cc(OCOC(=O)C(C)OC)ccc1C21OC(=O)c2ccccc21; assay: as above; format: biochemical, Staphylococcus aureus; details: other: SaFrmB 15 µg/mL, pH 7.5, 37°C
Experimental: as §1

[8] = substrate: CCCOCC(=O)OCOc1ccc2c(c1)Oc1cc(OCOC(=O)COCCC)ccc1C21OC(=O)c2ccccc21; assay: as above; format: biochemical, Staphylococcus aureus; details: other: SaFrmB 15 µg/mL, pH 7.5, 37°C
Experimental: as §1

[9] = substrate: COC(C)(C)C(=O)OCOc1ccc2c(c1)Oc1cc(OCOC(=O)C(C)(C)OC)ccc1C21OC(=O)c2ccccc21; assay: as above; format: biochemical, Staphylococcus aureus; details: other: SaFrmB 15 µg/mL, pH 7.5, 37°C
Experimental: as §1

[10] = substrate: CCSCCC(=O)OCOc1ccc2c(c1)Oc1cc(OCOC(=O)CCSCC)ccc1C21OC(=O)c2ccccc21; assay: as above; format: biochemical, Staphylococcus aureus; details: other: SaFrmB 15 µg/mL, pH 7.5, 37°C
Experimental: as §1

[11] = substrate: CCOCC(=O)OCOc1ccc2c(c1)Oc1cc(OCOC(=O)COCC)ccc1C21OC(=O)c2ccccc21; assay: as above; format: biochemical, Staphylococcus aureus; details: other: SaFrmB 15 µg/mL, pH 7.5, 37°C
Experimental: as §1

[12] = substrate: CC(C)OCC(=O)OCOc1ccc2c(c1)Oc1cc(OCOC(=O)COC(C)C)ccc1C21OC(=O)c2ccccc21; assay: as above; format: biochemical, Staphylococcus aureus; details: other: SaFrmB 15 µg/mL, pH 7.5, 37°C
Experimental: as §1

[13] = substrate: CSCCC(=O)OCOc1ccc2c(c1)Oc1cc(OCOC(=O)CCSC)ccc1C21OC(=O)c2ccccc21; assay: as above; format: biochemical, Staphylococcus aureus; details: other: SaFrmB 15 µg/mL, pH 7.5, 37°C
Experimental: as §1

COCC(=O)OCOc1ccc2c(c1)Oc1cc(OCOC(=O)COC)ccc1C21OC(=O)c2ccccc21 [1O]
Km (mouse sera): > 50 µM | Km (human sera): 64.1 µM | Vmax (human sera): 68.6 pmol*min-1*mg sera-1 | kcat/kuncat (SaGloB; SaGloB, normalised to uncatalysed hydrolysis rate): 38.6 103 | In vitro activity (catalytic efficiency) for GloB, in words (SaGloB; fluorogenic ester substrate): high activity; also recorded: highest catalytic efficiency substrate | kcat/kuncat (SaFrmB; SaFrmB): 1.34 103 | In vitro activity (catalytic efficiency) for FrmB, in words (SaFrmB): high activity; also recorded: highest catalytic efficiency substrate | Time to intracellular fluorescence saturation (S. aureus; images every 2 min): < 2 min

CCCCCC(=O)OCOc1ccc2c(c1)Oc1cc(OCOC(=O)CCCCC)ccc1C21OC(=O)c2ccccc21 [3C]
Km (mouse sera): > 50 µM | Km (human sera): > 50 µM | Km (SaGloB; SaGloB, fluorogenic ester substrate): > 50 µM | In vitro activity (catalytic efficiency) for GloB, in words (SaGloB; fluorogenic ester substrate): moderate activity | Km (SaFrmB; SaFrmB 15 µg/mL, pH 7.5, 37°C): > 50 µM | In vitro activity (catalytic efficiency) for FrmB, in words (SaFrmB): moderate activity | Intracellular activation (fluorescence) in live S. aureus, in words (S. aureus; 30 min of observation): slowly activates over the duration of the experiment

B1: SaFrmB (Staphylococcus aureus subsp. aureus str. Newman) (protein)
chain: T2 sequence (A0A0H3KFB7 1-253)
notes: made in house; host or cells: E. coli BL21 (DE3)
Km [1]: 26.5 µM | Vmax [1]: 0.0637 pmol*min-1*μg protein-1 | kcat [1]: 0.0120 10-3 s-1 | kcat/Km [1]: 0.452 M⁻¹ s⁻¹ | Km [2]: 36.3 µM | Vmax [2]: 0.629 pmol*min-1*μg protein-1 | kcat [2]: 0.118 10-3 s-1 | kcat/Km [2]: 3.27 M⁻¹ s⁻¹ | Km [3]: 18.3 µM | Vmax [3]: 0.163 pmol*min-1*μg protein-1 | kcat [3]: 0.0307 10-3 s-1 | kcat/Km [3]: 1.68 M⁻¹ s⁻¹ | Km [4]: 30.3 µM | Vmax [4]: 5.98 pmol*min-1*μg protein-1 | kcat [4]: 1.13 10-3 s-1 | kcat/Km [4]: 37.2 M⁻¹ s⁻¹ | Km [5]: 30.0 µM | Vmax [5]: 0.183 pmol*min-1*μg protein-1 | kcat [5]: 0.0345 10-3 s-1 | kcat/Km [5]: 1.15 M⁻¹ s⁻¹ | Km [6]: 30.4 µM | Vmax [6]: 0.149 pmol*min-1*μg protein-1 | kcat [6]: 0.0280 10-3 s-1 | kcat/Km [6]: 0.921 M⁻¹ s⁻¹ | Km [7]: 107 µM | Vmax [7]: 2.57 pmol*min-1*μg protein-1 | kcat [7]: 0.485 10-3 s-1 | kcat/Km [7]: 4.52 M⁻¹ s⁻¹ | Km [8]: 9.95 µM | Vmax [8]: 0.621 pmol*min-1*μg protein-1 | kcat [8]: 0.117 10-3 s-1 | kcat/Km [8]: 11.7 M⁻¹ s⁻¹ | Km [9]: 74.2 µM | Vmax [9]: 0.163 pmol*min-1*μg protein-1 | kcat [9]: 0.0307 10-3 s-1 | kcat/Km [9]: 0.414 M⁻¹ s⁻¹ | Km [10]: 11.1 µM | Vmax [10]: 0.0295 pmol*min-1*μg protein-1 | kcat [10]: 0.00556 10-3 s-1 | kcat/Km [10]: 0.500 M⁻¹ s⁻¹ | Km [11]: 13.9 µM | Vmax [11]: 2.04 pmol*min-1*μg protein-1 | kcat [11]: 0.385 10-3 s-1 | kcat/Km [11]: 27.7 M⁻¹ s⁻¹ | Km [12]: 9.17 µM | Vmax [12]: 0.597 pmol*min-1*μg protein-1 | kcat [12]: 0.112 10-3 s-1 | kcat/Km [12]: 12.3 M⁻¹ s⁻¹ | Km [13]: 52.7 µM | Vmax [13]: 0.505 pmol*min-1*μg protein-1 | kcat [13]: 0.0950 10-3 s-1 | kcat/Km [13]: 1.80 M⁻¹ s⁻¹
